# Experimental data as given in the MegaScale stability set (Tsuboyama et al. 2023).
# B1: 1ZHC (parent)
# chain: HEFRDEISVLKANNPHFDKIFEKHNQLDDDIKTAEQQNASDAEVSHMKKQKLKLKDEIHSMIIEYREK
# Variants of: B1
# Assay: folding stability dG (cDNA display proteolysis); higher = more stable
# Settings: PBS, room temperature
row,Variant,folding stability dG [kJ/mol]
1,HEFRDEISVLKANNPHFDKIFEKHNQLDDDIKTAEQQNASDAEVSHMKKQKLKLKDEIHSMITEYREK [I63T],0.657
2,HEFRDEISVLKANNPHFDKIFEKHNQLDDDIKTAEQQNASDAEVSHMKKQKLKLKDEIHSMIREYREK [I63R],4.08
3,HEFRDEISVLKANNPHFDKIFEKHNQLDDDIKTAEQQNASDAEVSHMKKQKLKLKDEIHSMIWEYREK [I63W],-0.163
4,HEFRDEISVLKANNPHFDKIFEKHNQLDDDIKTAEQQNASDAEVSHMKKQKLKLKDEIHSMIYEYREK [I63Y],0.54
5,HEFRDEISVLKANNPHFDKIFEKHNQLDDDIKTAEQQNASDAEVSHMKKQKLKLKDEIHSMIQEYREK [I63Q],4.67
6,HEFRDEISVLKANNPHFDKIFEKHNQLDDDIKTAEQQNASDAEVSHMKKQKLKLKDEIHSMISEYREK [I63S],0.331
7,HEFRDEISVLKANNPHFDKIFEKHNQLDDDIKTAEQQNASDAEVSHMKKQKLKLKDEIHSMINEYREK [I63N],2.6
8,HEFRDEISVLKANNPHFDKIFEKHNQLDDDIKTAEQQNASDAEVSHMKKQKLKLKDEIHSMIVEYREK [I63V],2.55
9,HEFRDEISVLKANNPHFDKIFEKHNQLDDDIKTAEQQNASDAEVSHMKKQKLKLKDEIHSMIIEYWEK [R66W],0.682
10,HEFRDEISVLKANNPHFDKIFEKHNQLDDDIKTAEQQNASDAEVSHMKKQKLKLKDEIHSMIIEYKEK [R66K],1.69
11,HEFRDEISVLKANNPHFDKIFEKHNQLDDDIKTAEQQNASDAEVSHMKKQKLKLKDEIHSMIIEYIEK [R66I],2.9
12,HEFRDEISVLKANNPHFDKIFEKHNQLDDDIKTAEQQNASDAEVSHMKKQKLKLKDEIHSMIIEYVEK [R66V],1.46
13,HEFRDEISVLKANNPHFDKIFEKHNQLDDDIKTAEQQNASDAEVSHMKKQKLKLKDEIHSMIIEYLEK [R66L],4.5
14,HEFRDEISVLKANNPHFDKIFEKHNQLDDDIKTAEQQNASDAEVSHMKKQKLKLKDEIHSMIIEYQEK [R66Q],1.37
15,HEFRDEISVLKANNPHFDKIFEKHNQLDDDIKTAEQQNASDAEVSHMKKQKLKLKDEIHSMIIEYHEK [R66H],6.39
16,HEFRDEISVLKANNPHFDKIFEKHNQLDDDIKTAEQQNASDAEVSHMKKQKLKLKDEIHSMIIEYFEK [R66F],0.615
17,HEFRDEISVLKANNPHFDKIFEKHNQLDDDIKTAEQQNASDAEVSHMKKQKLKLKDEIHSMIIEYYEK [R66Y],0.381
18,HEFRDEISVLKANNPHFDKIFEKHNQLDDDIKTAEQQNASDAEVSHMKKQKLKLKDEIHSMIIEYCEK [R66C],1.61
19,HEFRDEISVLKANNPHFDKIFEKHNQLDDDIKTAEQQNASDAEVSHMKKQKLKLKDEIHSMIIEYSEK [R66S],-2.08
20,HEFRDEISVLKANNPHFDKIFEKHNQLDDDIKTAEQQNASDAEVSHMKKQKLKLKDEIHSMIIEYMEK [R66M],3.19
21,HEFRDEISVLKANNPHFDKIFEKHNQLDDDIKTAEQQNASDAEVSHMKKQKLKLKDEIHSMIIELREK [Y65L],1.62
22,HEFRDEISVLKANNPHFDKIFEKHNQLDDDIKTAEQQNASDAEVSHMKKQKLKLKDEIHSMIIEWREK [Y65W],4.02
23,HEFRDEISVLKANNPHFDKIFEKHNQLDDDIKTAEQQNASDAEVSHMKKQKLKLKDEIHSMIIEMREK [Y65M],1.61
24,HEFRDEISVLKANNPHFDKIFEKHNQLDDDIKTAEQQNASDAEVSHMKKQKLKLKDEIHSMIIEQREK [Y65Q],0.623
25,HEFRDEISVLKANNPHFDKIFEKHNQLDDDIKTAEQQNASDAEVSHMKKQKLKLKDEIHSMIIEAREK [Y65A],0.858
26,HEFRDEISVLKANNPHFDKIFEKHNQLDDDIKTAEQQNASDAEVSHMKKQKLKLKDEIHSMIIENREK [Y65N],-4.08
27,HEFRDEISVLKANNPHFDKIFEKHNQLDDDIKTAEQQNASDAEVSHMKKQKLKLKDEIHSMIIEIREK [Y65I],1.3

row,Variant,folding stability dG [kJ/mol]
1,HEFRDEISVLKANNPHFDKIFEKHNQLDDDIKTAEQQNASDAEVSHMKKQKLKLKDEIHSMIIEVREK [Y65V],-3.72
2,HEFRDEISVLKANNPHFDKIFEKHNQLDDDIKTAEQQNASDAEVSHMKKQKLKLKDEIHSMIIEEREK [Y65E],-2.81
3,HEFRDEISVLKANNPHFDKIFEKHNQLDDDIKTAEQQNASDAEVSHMKKQKLKLKDEIHSMIIEHREK [Y65H],0.473
4,HEFRDEISVLKANNPHFDKIFEKHNQLDDDIKTAEQQNASDAEVSHMKKQKLKLKDEIHSMIIEFREK [Y65F],4.23
5,HEFRDEISVLKANNPHFDKIFEKHNQLDDDIKTAEQQNASDAEVSHMKKQKLKLKDEIHSMIIECREK [Y65C],-1.32
6,HEFRDEISVLKANNPHFDKIFEKHNQLDDDIKTAEQQNASDAEVSHMKKQKLKLKDEIHSMIIESREK [Y65S],-1.89
7,HEFRDEISVLKANNPHFDKIFEKHNQLDDDIKTAEQQNASDAEVSHMKKQKLKLKDEIHSMIISYREK [E64S],3.08
8,HEFRDEISVLKANNPHFDKIFEKHNQLDDDIKTAEQQNASDAEVSHMKKQKLKLKDEIHSMIIYYREK [E64Y],2.03
9,HEFRDEISVLKANNPHFDKIFEKHNQLDDDIKTAEQQNASDAEVSHMKKQKLKLKDEIHSMIINYREK [E64N],2.44
10,HEFRDEISVLKANNPHFDKIFEKHNQLDDDIKTAEQQNASDAEVSHMKKQKLKLKDEIHSMIIRYREK [E64R],2.8
11,HEFRDEISVLKANNPHFDKIFEKHNQLDDDIKTAEQQNASDAEVSHMKKQKLKLKDEIHSMIIWYREK [E64W],2.93
12,HEFRDEISVLKANNPHFDKIFEKHNQLDDDIKTAEQQNASDAEVSHMKKQKLKLKDEIHSMIIQYREK [E64Q],4.05
13,HEFRDEISVLKANNPHFDKIFEKHNQLDDDIKTAEQQNASDAEVSHMKKQKLKLKDEIHSMIIDYREK [E64D],0.155
14,HEFRDEISVLKANNPHFDKIFEKHNQLDDDIKTAEQQNASDAEVSHMKKQKLKLKDEIHSMIICYREK [E64C],3.06
15,HEFRDEISVLKANNPHFDKIFEKHNQLDDDIKTAEQQNASDAEVSHMKKQKLKLKDEIHSMIIHYREK [E64H],2.64
16,HEFRDEISVLKANNPHFDKIFEKHNQLDDDIKTAEQQNASDAEVSHMKKQKLKLKDEIHSMIIKYREK [E64K],4.18
17,HEFRDEISVLKANNPHFDKIFEKHNQLDDDIKTAEQQNASDAEVSHMKKQKLKLKDEIHSMIIMYREK [E64M],3.2
18,HEFRDEISVLKANNPHFDKIFEKHNQLDDDIKTAEQQNASDAEVSHMKKQKLKLKDEIHSMIIIYREK [E64I],0.498
19,HEFRDEISVLKANNPHFDKIFEKHNQLDDDIKTAEQQNASDAEVSHMKKQKLKLKDEIHSMIILYREK [E64L],3.47
20,HEFRDEISVLKANNPHFDKIFEKHNQLDDDIKTAEQQNASDAEVSHMKKQKLKLKDEIHSMIIFYREK [E64F],2.2
21,HEFRDEISVLKANNPHFDKIFEKHNQLDDDIKTAEQQNASDAEVSHMKKQKLKLKDEIHSMIIGYREK [E64G],-3.56
22,HEFRDEISVLKANNPHFDKIFEKHNQLDDDIKTAEQQNASDAEVSHMKKQKLKLKDEIHSMIIAYREK [E64A],5.49
23,HEFRDEISVLKANNPHFDKIFEKHNQLDDDIKTAEQQNASDAEVSHMKKQKLKLKDEIHSMIITYREK [E64T],1.1
24,HEFRDEISVLKANNPHFDKIFEKHNQLDDDIKTAEQQNASDAEVSHMKKQKLKLKDEIHSMIIVYREK [E64V],-0.159
25,HEFRDEISVLKANNPHFDKIFEKHNQLDDDIKTAEQQNASDAEVSHMKKQKLKLKDEIHSMIIEYRDK [E67D],2.31
26,HEFRDEISVLKANNPHFDKIFEKHNQLDDDIKTAEQQNASDAEVSHMKKQKLKLKDEIHSMIIEYRYK [E67Y],3.9
27,HEFRDEISVLKANNPHFDKIFEKHNQLDDDIKTAEQQNASDAEVSHMKKQKLKLKDEIHSMIIEYRSK [E67S],4.36

row,Variant,folding stability dG [kJ/mol]
1,HEFRDEISVLKANNPHFDKIFEKHNQLDDDIKTAEQQNASDAEVSHMKKQKLKLKDEIHSMIIEYRVK [E67V],3.72
2,HEFRDEISVLKANNPHFDKIFEKHNQLDDDIKTAEQQNASDAEVSHMKKQKLKLKDEIHSMIIEYRMK [E67M],3.62
3,HEFRDEISVLKANNPHFDKIFEKHNQLDDDIKTAEQQNASDAEVSHMKKQKLKLKDEIHSMIIEYRTK [E67T],5.78
4,HEFRDEISVLKANNPHFDKIFEKHNQLDDDIKTAEQQNASDAEVSHMKKQKLKLKDEIHSMIIEYRGK [E67G],2.53
5,HEFRDEISVLKANNPHFDKIFEKHNQLDDDIKTAEQQNASDAEVSHMKKQKLKLKDEIHSMIIEYRAK [E67A],4.54
6,HEFRDEISVLKANNPHFDKIFEKHNQLDDDIKTAEQQNASDAEVSHMKKQKLKLKDEIHSMIIEYRCK [E67C],5.56
7,HEFRDEISVLKANNPHFDKIFEKHNQLDDDIKTAEQQNASDAEVSHMKKQKLKLKDEIHSMIIEYRKK [E67K],4.5
8,HEFRDEISVLKANNPHFDKIFEKHNQLDDDIKTAEQQNASDAEVSHMKKQKLKLKDEIHSMIIEYRRK [E67R],5.43
9,HEFRDEISVLKANNPHFDKIFEKHNQLDDDIKTAEQQNASDAEVSHMKKQKLKLKDEIHSMIIEYRLK [E67L],4.29
10,HEFRDEISVLKANNPHFDKIFEKHNQLDDDIKTAEQQNASDAEVSHMKKQKLKLKDEIHSMIIEYRFK [E67F],3.83
11,HEFRDEISVLKANNPHFDKIFEKHNQLDDDIKTAEQQNASDAEVSHMKKQKLKLKDEIHSMIIEYRQK [E67Q],4.94
12,HEFRDEISVLKANNPHFDKIFEKHNQLDDDIKTAEQQNASDAEVSHMKKQKLKLKDEIHSMIIEYRNK [E67N],5.27
13,HEFRDEISVLKANNPHFDKIFEKHNQLDDDIKTAEQQNASDAEVSHMKKQKLKLKDEIHSMIIEYRIK [E67I],4.46
14,HEFRDEISVLKANNPHFDKIFEKHNQLDDDIKTAEQQNASDAEVSHMKKQKLKLKDEIHSMIIEYRHK [E67H],4.35
15,HEFRDEISVLKANNPHFDKIFEKHNQLDDDIKTAEQQNASDAEVSHMKKQKLKLKDEIHSMIIEYRWK [E67W],4.17
16,HEFRDEISVLKANNPHFDKIFEKHNQLDDDIKTAEQQNASDAEVSHMKKQKLKLKDEIHSMIIEYREE [K68E],-1.42
17,HEFRDEISVLKANNPHFDKIFEKHNQLDDDIKTAEQQNASDAEVSHMKKQKLKLKDEIHSMIIEYREA [K68A],3.29
18,HEFRDEISVLKANNPHFDKIFEKHNQLDDDIKTAEQQNASDAEVSHMKKQKLKLKDEIHSMIIEYREL [K68L],1.96
19,HEFRDEISVLKANNPHFDKIFEKHNQLDDDIKTAEQQNASDAEVSHMKKQKLKLKDEIHSMIIEYREG [K68G],2.07
20,HEFRDEISVLKANNPHFDKIFEKHNQLDDDIKTAEQQNASDAEVSHMKKQKLKLKDEIHSMIIEYREC [K68C],3.12
21,HEFRDEISVLKANNPHFDKIFEKHNQLDDDIKTAEQQNASDAEVSHMKKQKLKLKDEIHSMIIEYREM [K68M],2.05
22,HEFRDEISVLKANNPHFDKIFEKHNQLDDDIKTAEQQNASDAEVSHMKKQKLKLKDEIHSMIIEYREH [K68H],2.14
23,HEFRDEISVLKANNPHFDKIFEKHNQLDDDIKTAEQQNASDAEVSHMKKQKLKLKDEIHSMIIEYRED [K68D],-2.71
24,HEFRDEISVLKANNPHFDKIFEKHNQLDDDIKTAEQQNASDAEVSHMKKQKLKLKDEIHSMIIEYREI [K68I],1.25
25,HEFRDEISVLKANNPHFDKIFEKHNQLDDDIKTAEQQNASDAEVSHMKKQKLKLKDEIHSMIIEYREF [K68F],1.52
